In publication PMC8280820, “Phospho‐regulation, nucleotide binding and ion access control in potassium‐chloride cotransporters” (The EMBO Journal, 2021):

Target: the molecule itself
Test: cryo-EM structure; single-particle cryo-EM of the purified transporter in digitonin, 150 mM NaCl, 20 mM HEPES pH 7.5 (KCC3b-PM also in KCl); homodimer

Protein | stoichiometry N
KCC1Δ19 (human potassium-chloride cotransporter KCC1, isoform A, N-terminally deleted, L20-S1085) (domain or fragment, UniProt Q9UP95 20-1085, looked up, phosphoserine at S88, S734 and S1050 (by proteomics analysis); not phosphorylated at T926/T983, KCC1 (SLC12A4), human, isoform A, residues L20-S1085; Cloned into the pHTBV vector with and without GFP; also called KCC1 (construct Δ19); Δ19-deleted human KCC1; not shown: twin-Strep, C-terminal, cleaved; His10, C-terminal, cleaved) LEGLSWVDYGERAELDDSDGHGNHRESSPFLSPLEASRGIDYYDRNLALFEEELDIRPKVSSLLGKLVSYTNLTQGAKEHEEAESGEGTRRRAAEAPSMGTLMGVYLPCLQNIFGVILFLRLTWMVGTAGVLQALLIVLICCCCTLLTAISMSAIATNGVVPAGGSYFMISRSLGPEFGGAVGLCFYLGTTFAAAMYILGAIEILLTYIAPPAAIFYPSGAHDTSNATLNNMRVYGTIFLTFMTLVVFVGVKYVNKFASLFLACVIISILSIYAGGIKSIFDPPVFPVCMLGNRTLSRDQFDICAKTAVVDNETVATQLWSFFCHSPNLTTDSCDPYFMLNNVTEIPGIPGAAAGVLQENLWSAYLEKGDIVEKHGLPSADAPSLKESLPLYVVADIATSFTVLVGIFFPSVTGIMAGSNRSGDLRDAQKSIPVGTILAIITTSLVYFSSVVLFGACIEGVVLRDKYGDGVSRNLVVGTLAWPSPWVIVIGSFFSTCGAGLQSLTGAPRLLQAIAKDNIIPFLRVFGHGKVNGEPTWALLLTALIAELGILIASLDMVAPILSMFFLMCYLFVNLACAVQTLLRTPNWRPRFKYYHWALSFLGMSLCLALMFVSSWYYALVAMLIAGMIYKYIEYQGAEKEWGDGIRGLSLSAARYALLRLEEGPPHTKNWRPQLLVLLKLDEDLHVKYPRLLTFASQLKAGKGLTIVGSVIQGSFLESYGEAQAAEQTIKNMMEIEKVKGFCQVVVASKVREGLAHLIQSCGLGGMRHNSVVLGWPYGWRQSEDPRAWKTFIDTVRCTTAAHLALLVPKNIAFYPSNHERYLEGHIDVWWIVHDGGMLMLLPFLLRQHKVWRKCRMRIFTVAQMDDNSIQMKKDLAVFLYHLRLEAEVEVVEMHNSDISAYTYERTLMMEQRSQMLRQMRLTKTEREREAQLVKDRHSALRLESLYSDEEDESAVGADKIQMTWTRDKYMTETWDPSHAPDNFRELVHIKPDQSNVRRMHTAVKLNEVIVTRSHDARLVLLNMPGPPRNSEGDENYMEFLEVLTEGLERVLLVRGGGREVITIYS | 2
KCC3b-PM (human potassium-chloride cotransporter KCC3 isoform B, phospho-mimetic S45D/T940D/T997D, M1-S1099) (natural protein, UniProt Q9UHW9-2 1-1099, looked up, phosphorylated at S685, T727, S930 and Y1070 (by proteomics analysis; the paper says likely only in a subset of the particles for some sites); not phosphorylated at T106/T109, KCC3 (SLC12A6), human, isoform B (KCC3b), residues M1-S1099 (printed length 1099); numbers count on: the B-isoform; Synthesized gene (GenScript, Twist Bioscience) subcloned into pHTBV with C-terminal twin-strep, 10-His and GFP; also called KCC3‐PM; KCC3b (construct PM); not shown: twin-Strep, C-terminal, cleaved; His10, C-terminal, cleaved) MPHFTVTKVEDPEEGAAASISQEPSLADIKARIQDSDEPDLSQNDITGEHSQLLDDGHKKARNAYLNNSNYEEGDEYFDKNLALFEEEMDTRPKVSSLLNRMANYTNLTQGAKEHEEAENITEGKKKPTKTPQMGTFMGVYLPCLQNIFGVILFLRLTWVVGTAGVLQAFAIVLICCCCTMLTAISMSAIATNGVVPAGGSYFMISRALGPEFGGAVGLCFYLGTTFAAAMYILGAIEIFLVYIVPRAAIFHSDDALKESAAMLNNMRVYGTAFLVLMVLVVFIGVRYVNKFASLFLACVIVSILAIYAGAIKSSFAPPHFPVCMLGNRTLSSRHIDVCSKTKEINNMTVPSKLWGFFCNSSQFFNATCDEYFVHNNVTSIQGIPGLASGIITENLWSNYLPKGEIIEKPSAKSSDVLGSLNHEYVLVDITTSFTLLVGIFFPSVTGIMAGSNRSGDLKDAQKSIPIGTILAILTTSFVYLSNVVLFGACIEGVVLRDKFGDAVKGNLVVGTLSWPSPWVIVIGSFFSTCGAGLQSLTGAPRLLQAIAKDNIIPFLRVFGHSKANGEPTWALLLTAAIAELGILIASLDLVAPILSMFFLMCYLFVNLACALQTLLRTPNWRPRFRYYHWALSFMGMSICLALMFISSWYYAIVAMVIAGMIYKYIEYQGAEKEWGDGIRGLSLSAARFALLRLEEGPPHTKNWRPQLLVLLKLDEDLHVKHPRLLTFASQLKAGKGLTIVGSVIVGNFLENYGEALAAEQTIKHLMEAEKVKGFCQLVVAAKLREGISHLIQSCGLGGMKHNTVVMGWPNGWRQSEDARAWKTFIGTVRVTTAAHLALLVAKNISFFPSNVEQFSEGNIDVWWIVHDGGMLMLLPFLLKQHKVWRKCSIRIFTVAQLEDNSIQMKKDLATFLYHLRIEAEVEVVEMHDSDISAYTYERDLMMEQRSQMLRHMRLSKTERDREAQLVKDRNSMLRLTSIGSDEDEETETYQEKVHMDWTKDKYMASRGQKAKSMEGFQDLLNMRPDQSNVRRMHTAVKLNEVIVNKSHEAKLVLLNMPGPPRNPEGDENYMEFLEVLTEGLERVLLVRGGGSEVITIYS | 2
